Data: patent US6428967

Key:
[1] = target: wild type human LDL receptor on CHO cells (human) (UniProt P01130); experiment: 125I-LDL surface binding on CHO cells expressing the wild type human LDL receptor, with or without Dab1
[2] = target: wild type human LDL receptor on CHO cells (human) (UniProt P01130); experiment: cell-based or functional assay

wild type human LDL receptor on CHO cells (human), sequence (P01130 22-860): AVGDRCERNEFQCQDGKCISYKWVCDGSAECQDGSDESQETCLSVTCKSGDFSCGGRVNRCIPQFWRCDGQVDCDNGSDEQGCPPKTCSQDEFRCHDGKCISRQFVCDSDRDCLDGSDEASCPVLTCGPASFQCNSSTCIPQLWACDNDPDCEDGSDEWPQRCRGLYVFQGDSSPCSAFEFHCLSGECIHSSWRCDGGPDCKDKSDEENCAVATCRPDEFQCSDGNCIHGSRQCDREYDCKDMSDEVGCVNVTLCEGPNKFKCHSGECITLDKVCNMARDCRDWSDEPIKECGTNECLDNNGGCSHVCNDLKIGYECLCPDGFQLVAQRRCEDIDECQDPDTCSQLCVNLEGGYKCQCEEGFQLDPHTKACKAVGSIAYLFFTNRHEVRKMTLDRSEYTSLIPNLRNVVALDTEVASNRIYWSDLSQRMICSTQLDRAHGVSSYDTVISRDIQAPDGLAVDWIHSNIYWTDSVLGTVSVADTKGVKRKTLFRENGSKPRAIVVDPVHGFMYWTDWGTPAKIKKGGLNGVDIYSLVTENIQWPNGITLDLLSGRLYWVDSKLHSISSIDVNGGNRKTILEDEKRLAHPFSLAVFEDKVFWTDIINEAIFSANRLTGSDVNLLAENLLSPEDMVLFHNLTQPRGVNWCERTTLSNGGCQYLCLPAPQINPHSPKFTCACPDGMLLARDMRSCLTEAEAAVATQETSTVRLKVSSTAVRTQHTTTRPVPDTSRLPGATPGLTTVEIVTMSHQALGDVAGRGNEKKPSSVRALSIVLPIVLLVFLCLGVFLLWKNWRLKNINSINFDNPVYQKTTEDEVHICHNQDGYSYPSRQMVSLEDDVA

Row | fold of LDL bound on the cell surface, cells with Dab1 against cells without Dab1 [1] | LDL bound on the cell surface (125I labeled human LDL) [2] | Substance
1 | 2 times | – | 125I labeled human LDL, P04114 28-4563
2 | – | 2 times | Dab1 expressed in CHO cells from pcDNA3.1/ZEO DAB555 (from UniProt P97318 1-555)
